Assay results from a protein production outcome set (Wang et al. 2014).

Assay: label from the status in PepcDB records

Sequence | protein production
MLKNLRIRKFEPEEEYVHFTYSIKNSEREKSKELIKEYRTLLQKAIDYLWNLTKIQVRKKNGSYKITLPKKKEVYKPLREELEKINHLASHYVDKAINDAFSILKSWRKRAIKGRASIEKPTLKKAYVRIKTTLRKVVGESVRITVRPYEYITFSWSKSWFSRRVRELELGEPIIKEEKVYLPFRYKLPWVTPVNFLAIDSNLYTLDAYDGEKFVTISLKQLYSLKYSMEVKRAKVQSFASKHTKRGRELMRKYSHRERNRVLDFVHKFVNTLLDLYPMTFFAVEKLNKESMFKDANGSLSRKISRTVWRSIHRVLKYKAPLYGSFVKEVNPHLTSRSCPRCGFVSRKVGKTFECERCGFKLDRQLNASLNIYLKMCGFPHIRDIPRVWVGVIPLMGRRGMNVRDFGEAQGLRIDIKYHEILLEHHHHHH | failed
MLKNLRLKSFQPEEEYVHFTYSIKNDKREESKELIKEYTTLLQKAIDYLWSLTKIQVRKNGNYKITLPKKKEVYKPLRDELEKINHLASHYVDKAINDAFSILKSWRKRAIKGRASIEKPRVKKAYVRIKTTLRKVVGESVRITVRPYEYITFSWSKSWFSRRVRELELGEPIIKEEKVYLPFRYKLPWATPLNFLAIDSNLYTLDAYDGEKFVTISLKQLYSLKYSMEVKRAKVQSFASKHTKRGRELLRKYSHRERNRVLDFVHKFVNALLDLYPMTFFAVEKLNKESMFVDANDSLSRKISRTVWRSIHRVLKYKAPLYGSFVKEVNPRFTSRSCPRCGFVSRKVGKTFECERCGFKLDRQLNASLNIYLKMCGFPHIRDIARVWVGVIPLMGRRGMNGFPRDFGEAQGLRIDIKYHEIP | failed
MLKPMYYEFFFIFPKERELFESFLLDATHLALEESSLENLKAFDDKETIGFISQSNWHYFATHDPLKKDLKENLKEKPPHLKNFVILRSQKDLNNSLIPALEAFCLNLKQNLQSEFDFFYLSRNLASKDWLEAYKQAILPVQCTKFYIHPSWHQKPSHVVTNDCIMIDPALAFGSGHHESTSMCLELLSDIDLKRKNALDVGCGSGILSIALKKQGVSALVACDTDSLAVEETLKNFSLNQIPLLVQDKVIYGSTQKIEGRFDVIVANLVADVIKSLYSEFVRLCNHTLILSGILETHLNSVLQIYYNGFEVLEQRQRNEWVALKLLKKQPIN | failed
MLKRASFVEVDTASLRHNFSAVKSIVPKDACVMAVVKANAYGAGAIKASEIFLQEGANYLGVATLDEALELRSHFSKTPILILGYSPNANASMLVDNDLSAMIFSLEQAEVFSQMALKSQKRLKVHIKIDTGMHRLGLEPNFKSIETIKKIRALKGLEIEGIFTHLSNADAKIKTHAKNQMKAFNAFLEQLLDQKIEFQYRHAYNSAGILSLCNGNENRLLNLYRPGIMLYGFYPSNGMKESCPTILKNVISLKAQIVQIRSVKKGEFIGYGEHFYTNEETLVGVLALGYADGLMRALGNRIQVAINNQLAPLIGKVCMDQCFVKLNNIQAKEGDEVILFGDKSAKANDASEIXALLNTIAYETISTLSKRLERVYI | failed
MLKTSALAPCGKPMLIWPSQTSARRHGFSEASYCLWRSKFGGMSMPDAKRLKDLEAENTRLKKLLAEQVFQNDLIKDALQKMVSAPARRALVREWIAGGASERCALAAIGMSASALRYRPREDRNVELRERILALAHRHRRYGVGMISLKLRQEGRLVNYKRVERLYCEQQLQVRRRKRKKVPLGERAPLLRPTKANPVWSMDVVFDRTAEGRAIKCLVIVDDATHEAVAIDVERAISGHGVVRVLDRLAHSRGLPKMIRTDNGKEFCGKAMVAWAHANRVQLRQIQPGKPNQNAYVESFNGRLRDECLNKHGFPTLLHARTEIERWRREYNEHRPKKTIGGMTPAAYAQQLANSDIINPGL | failed
MLKTTKKSLLVFMGVFFLIFGVDQAIKYAILEGFRYESLMIDIVLVFNKGVAFSLLSFLEGGLKYLQILLILGLFIFLMRQRELFKNHAIEFGMVFGAGVSNVLDRFVHGGVVDYVYYHYGFDFAIFNFADVMIDVGVGVLLLKQFFFKQKQNKIKA | failed
MLKTVHQKAGRHTRPVRAWLKLLWQRIDEDNMTTLAGNLAYVSLLSLVPLIAVVFALFAAFPMFSDVSIQLRHFIFANFMPATGDVIQRYIEQFVANSNKMTAVGACGLIVTALLLMYAIDSALNTIWRSKRTRPKVYSFAVYWMILTLGPLLAGASLAISSYLLSLRWASDLNTVIDNVLRILPLLLSWISFWLLYSIVPTTRVPNRDALVGAFVAALLFEAGKKGFALYITMFPSYQLIYGVLAVIPILFVWVYWTWCIVLLGAEITVTLGEYRKLKQAAEQEEADQP | failed
MLKTVKLYARKAWNWLTSMRTALALLFLLAIAAIPGALLPQRSLNESNVIEYIENNGKLAEFYDKIQLFDVFSSTWFTAIYVLLLISLVGCILPRSWEHYKAMRAPVVRAPRNLERLAHNGEGLVEKREEEVEKDARKLLKGWKITEYSAEEDRAGVRSIAAEKGYTRELFNLIFHLGIVGMIVTAGLGRLFYYEGHVIVVTDGEQNQQNSVFCNTATANYDSFRAGANFDGTGLTTFCFEAHDFSADYLANGQAEMFRSNISYAVGDDIQNDPETWEDYELRVNHPLRIEGDRVYLQGHGFAPTFTVTWPNGETRTQTVQWRPDDPTFFLSSGVVRFDPPAGMYPDLYERRQNQLAIQGLFAPTAEWEGDNNELLTSSYPAMRDPAVAIDIYRGDNGLDTGIGQSLFSLDSSLMHSGVLQKIERVNLQIGDTVTLDDGTTVSFDGASEFANYQISRDPTQNWVLVTTVISLVSLVGSLMIRRRRIWVRFYPQENGTTRVETGGLARTDRAGWGGEYEKFHRELLGLKEEDEDEEYFDHDD | failed
MLKVFAMEMKDAKLYGGIGAILQLVGPFVPSIGFILALVGLVLVFLAVKTISEKSGDEGIFNNYLKAFIAQILGIIIFVGIIVATIGTAILKGGMGKLANPMEFMSLIGTILLGFIILWIFYTVAGYFKKKSYENSQYTGTDMFKTAGLLFFIGAILIILGIGVLIILIAEILEIVAFFSLPETSESAPVSA | failed
MLKVSVITACFNSEKTIEDTILSVLHQTYKNIEYIIIDGASTDSTLEIIQKHRDKIACVMSEKDEGIYDAMNKGIKRSSGDIIALLNSDDFYKDEFVVEKVVHEFERKNCDSVYADLVFVKPDCLEKVVRYYEIGEFNPKTLLYGVVPAHPTLFVKKAIYERYGLYKTDYKISADFEMIIRLFVVQKISFSYLKEVLVVMRTGGVSASGFKSLLLRNKENIRACKENGIQANVFSMLLKYPRKIMGLFKRGKGGLKRND | failed
MLKYSMHLNIILLEASLELVPKEIVNHPAVIKNAKRRNKKPEDTLLDISLHYHAMKYLENSHKRGRPDILHQALLVILTDPVIKGDIFIHTIQSKIIKVNPNMRPPKNYLRFIGLMEQLLKYGKIPINGDETLMEVTNLTLDNIVNRYDLILLSEKGEKINPEEICKLDEKWLLGIGAFPHGDFSDKILNLAKKIYSISGFPLETQQVLCRIFSACNSILGWPLEHHHHHH | failed
MLLAVEGGGLFSASASGYSKGLTLLFSGDKDVDRPMRVVPWNHYQVVDQEPEADPVLQLDSIKNRVSRGCAASFSCFGGASAGLETPSPLKVEPVQQQHREISSPESVVVVSEKGKDQISEADNGSSKEAFKLSLRSSLKRPSVAESRSLEDIKEYETLSVDGSDLTGDMARRKVQWPDACGSELTQVREFEPRYV | failed
